± gives the half width of the 95% confidence interval.
Assay: folding stability dG unfold (combined trypsin and chymotrypsin); higher = more stable
Method in brief: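 Digests were run with trypsin and chymotrypsin at 11 concentrations in threefold dilutions, plus a no-protease condition, on designed mini-proteins in a PA-tagged cDNA display construct. The mini-proteins were under 80 residues, had no cysteine, and were kept only when AlphaFold2 dimer inter-PAE was above 15. After sequencing, Bayesian fitting of the counts gave K50, from which unfolding free energy was derived against a sequence-predicted unfolded-state K50 and a shared folded-state K50, per protease or combined.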

Q: With “SAGGSAGGMVIEGRIKIVSPDGGEKEIPVVLFIPESFPDANLEELAEAIAKEILPPGYKADFEGSAGGSAGG [r6_821_TrMRF]” as the sequence, how does the “folding stability dG unfold” value read?
A: Its value is 0.879 ± 0.17 kcal/mol.

Q: With “SAGGSAGGSAPPLDRVFVEVRVEPGEDAGVVVTHPDGRVLTAPADADVVFEFHPDVPVLVADASAGGSAGGS [r12_553_TrMRF]” as the sequence, how does the “folding stability dG unfold” value read?
A: Its value is -0.201 ± 0.18 kcal/mol.

Q: Which “folding stability dG unfold” value does the source give for “SIEEIADTLQKLGLNVNIDDIELEPNPDGRFRIQVQVSGEPIRQVEVPPPPPPPPEEEVRDPDGKEHKVRSA [r9_442_TrROS]” here?
A: Its value is -0.404 ± 0.33 kcal/mol.

Q: For “SAGGKNDVKTKTYEIEKDGGKITIEFEKLPDGKYKATVTYPDGKKETLVFDLGEGKEEEFAKEIAKKKSAGG [r13_296_TrMRF]”, which “folding stability dG unfold” value is on record?
A: Its value is 2.48 ± 0.38 kcal/mol.

Q: Which “folding stability dG unfold” value does the source give for “SAGGSAGGSAGGEKVTLTLELPAEEIEELAKALAPPGAKVKITKISYDKENKKVTIEIESAGGSAGGSAGGS [r10_1030_TrROS_Hall]” here?
A: The value was 1.23 ± 0.07 kcal/mol.

Q: For “SAGGKPKIRIKIEIYTPEKKETIELEFDSVEEALEALASLPGVKVEKLPDGTIYIKIPNLIIKIEIEPSAGG [r13_143_TrROS_Hall]”, which “folding stability dG unfold” value is on record?
A: Its value is 3.42 ± 0.3 kcal/mol.

Q: For “SAGGEKKPVKVKIEVESFKLPNVLVLKAKVYLPATGKWYEAIVIEGPTKTLVVIKFPDGSSLVLELNSAGGS [r16_657_TrMRF]”, which “folding stability dG unfold” value is on record?
A: Its value is 3.9 ± 0.31 kcal/mol.

Q: For “SAGGSIRIYANNVEITDIEIGDDGYIEIKVRMRGPNGQPQEFTLMIRVVPPPPPPKVDPNDPDAKDSAGGSA [r2_368_TrROS]”, which “folding stability dG unfold” value is on record?
A: The value was 3.08 ± 0.31 kcal/mol.

Q: Which “folding stability dG unfold” value does the source give for “MTPEERIEEIEAKARELLRELGLPPEVRLTVEAEVRPRPDGRLELRVRVTVEFPGPPGAIPPELLEALAEES [r1_98_TrMRF]” here?
A: The value was 2.53 ± 0.14 kcal/mol.

Q: For “SAGGKKEVILVIEIDLPESEEELLEEAERLAKELAELLGKEREVEVEVIEKDGKLIIVLRINGKEIVLSAGG [r13_845_TrROS_Hall]”, which “folding stability dG unfold” value is on record?
A: Its value is 2.52 ± 0.32 kcal/mol.

Q: Which “folding stability dG unfold” value does the source give for “SAGGSAGGSAGGKSYTDPNSNTVTTLDEGPGFGKVTTTTYKPEEPVPLETTESIIGPVLSSAGGSAGGSAGG [r7_343_JUSTAS]” here?
A: The value was 0.273 ± 0.24 kcal/mol.

Q: For “SAGGSAGGSLMIPIPPGKPINIKFEIKNDDGHPMRITETYPVKNGYYVIRVENPNGNEQIIPFSAGGSAGGS [r12_31_TrROS]”, which “folding stability dG unfold” value is on record?
A: Its value is -0.185 ± 0.14 kcal/mol.

Q: With “SAGGSAGGSAGGLEKLVELLAPGKPLEVLRIDPTPTYVRIVVRHPDYPVDTVILADPDVISAGGSAGGSAGG [r7_303_TrMRF]” as the sequence, how does the “folding stability dG unfold” value read?
A: The value was -0.0768 ± 0.051 kcal/mol.

Q: With “SAGGSAGGSAGKPKTLEVEMLVLDPETRRLYRVRMEIVLDPEDEGKLTIRLEIEELELPDSAGGSAGGSAGG [r17_241_TrROS_Hall]” as the sequence, how does the “folding stability dG unfold” value read?
A: Its value is 4.27 ± 0.14 kcal/mol.

Q: Which “folding stability dG unfold” value does the source give for “SAGGSAGGSAGSNKVVTFVPRDPATGAPLGERPIPINSSSGSEIESIKKELPPEVVEIVESAGGSAGGSAGG [r17_339_JUSTAS]” here?
A: The value was 1.01 ± 0.066 kcal/mol.

Q: Which “folding stability dG unfold” value does the source give for “SAMTLTLEIELDGVRVRLEAELELVLNEDGSLELKLKLKIEVEPLPPPKEVEVEEEEEEVEEVEFLPEESAG [r14_341_TrROS_Hall]” here?
A: The value was 4.44 ± 0.26 kcal/mol.

Q: With “SAGGSAGGSATITITVDGKTITLEVPEDSEVEIVFDEKTGKLFIKDKKTNKVYEVSLEELLSAGGSAGGSAG [r3_137_TrROS_Hall]” as the sequence, how does the “folding stability dG unfold” value read?
A: The value was 3.92 ± 0.13 kcal/mol.

Q: Which “folding stability dG unfold” value does the source give for “SAGGKKVFTLDELKKLAEELNIEKIEVKEDEEGIYTFTFTDLAKKTGKEVTIKIVRNKNGELLVEIEPSAGG [r13_163_TrROS_Hall]” here?
A: The value was 2.53 ± 0.14 kcal/mol.

Q: With “SNEPPVIEIKFRIDEVQPMNGQPMIMFEITEIEDAPPEIQDLLKNGYYIMIHMPPGEPLKEGEEFEIHIFSA [r9_557_TrROS]” as the sequence, how does the “folding stability dG unfold” value read?
A: The value was 2.01 ± 0.3 kcal/mol.

Q: With “SAGGMTITVTVGPGKEEEAVEALKKKTGLKVELVETTPRPVRAPDGTVLEEVEEITIKITKPDPNLKESAGG [r13_943_JUSTAS]” as the sequence, how does the “folding stability dG unfold” value read?
A: The value was -0.638 ± 0.45 kcal/mol.

Q: With “SAGGSAELPSLGAEITVTEDPNRNTYTVTVPLVAPDGAPVGTLTVPFSSLEEARAFLRAQGLGELLSAGGSA [r15_127_JUSTAS]” as the sequence, how does the “folding stability dG unfold” value read?
A: The value was 2.773 ± 0.016 kcal/mol.

Q: Which “folding stability dG unfold” value does the source give for “SAGGSAGGSAGGPSPSTPVTVTVTFPETGETVTLEVTDLEELRERFPDRPVEITVSPGGSAGGSAGGSAGGS [r10_1004_JUSTAS]” here?
A: The value was 2.42 ± 0.06 kcal/mol.

Q: Which “folding stability dG unfold” value does the source give for “SAGNYYRVEVENPSEGKKVTIHIFPNGMINVEHDGGEHWIMIPPDNPDQIEEIASELAPNGYEVDIEPWSAG [r5_791_TrROS]” here?
A: The value was 0.774 ± 0.18 kcal/mol.

Q: For “SMIVRVEGDKTTITLTLTTTTTLTDPTNPSLTTTVSKTVPRTLTLDPNDPAALAALIAALPPGAVPTIVGSA [r9_476_JUSTAS]”, which “folding stability dG unfold” value is on record?
A: The value was 1.43 ± 0.095 kcal/mol.

Q: For “SAGYIIGYPIIEELFNAGKPEEIRKILKEAVEKDPDKIIIIEVPENPEIAKAIEEAFKEEGIPLIIIPESAG [r14_236_TrMRF]”, which “folding stability dG unfold” value is on record?
A: Its value is 0.929 ± 0.065 kcal/mol.

Q: With “SAGGAKIKFDIEPTNNTIRVKIEIWLPGGPVEIVEEEPVRVDPNGGIWISFRIRYPDGKPQEFQIPISAGGS [r8_449_TrROS]” as the sequence, how does the “folding stability dG unfold” value read?
A: The value was 2.88 ± 0.14 kcal/mol.

Q: For “SAGGSAGGSAGSSSISRETFDPETGLRYVYDPETDTITVIDLSNNKVVKTTPVGPEELERSAGGSAGGSAGG [r17_271_JUSTAS]”, which “folding stability dG unfold” value is on record?
A: Its value is 1.55 ± 0.07 kcal/mol.

Q: Which “folding stability dG unfold” value does the source give for “SAGGSAGGSAGSMTVTVTGGGVSVEVYPETGLVRVRSPSGSETLVDIATGEVVRREPAAASAGGSAGGSAGG [r11_149_JUSTAS]” here?
A: Its value is 0.781 ± 0.066 kcal/mol.

Q: Which “folding stability dG unfold” value does the source give for “SMITIPYNIQTDPSQAEKLAEEIAKEVEEKYGLKVVGVELVEWVPAPDGSESSVKVEIKIEAPDPKNILLSA [r9_302_JUSTAS]” here?
A: Its value is 0.705 ± 0.096 kcal/mol.

Q: With “SAGDVPVPATFEVELPGDGTARVTVVRHPGAAPGGFDTVRVEFRPGPTSSVTLTYRVPPGSAPVPFLGGSAG [r5_47_TrMRF]” as the sequence, how does the “folding stability dG unfold” value read?
A: Its value is 0.965 ± 0.19 kcal/mol.

Q: Which “folding stability dG unfold” value does the source give for “SAGGSAGGSAGGEAFEVERVELVLDPETGTPYLLVYFRDGRVLVYDLPRGTWRVVPAEELSAGGSAGGSAGG [r11_922_TrMRF]” here?
A: Its value is 2.81 ± 0.065 kcal/mol.

Q: For “SAGGSAGGSDVSEEELRAIAEEIAAELGLSDITVEVEKLPTAVVRITITNPATGETIEIEVPESAGGSAGGS [r12_1000_JUSTAS]”, which “folding stability dG unfold” value is on record?
A: Its value is 1.79 ± 0.047 kcal/mol.
